A short description of the data set: soluble on expression in E. coli; label from the status in PepcDB or PDB records.
In the case of “MGLIKAATSSVGGGLADQWLEVIEPDNMGDTTVMTKGVFVRKDDKRGSNRKGTDDVLTDGSVVHVYPNMMMLLVDGGKIIDYTAEEGYYTVKNDSAPSMFNGSLKDAIAETFSRFKFGGVTPQKQQVFYINLQEIKGIKFGTPAPLNYFDNFYNAELFLRAHGNYSIKITDPLLFYTNAIPKNQTQVDINDINEQYLAEFITALQAAINQMSADGQRISYVPSKSVELSKYMQTALDEDWRTNRGMEIVSVAVASISYTDDSTKLINMRNEGAMLSDPGVREGYVQGSLARGMEAAGKNEGGAMSGFMGVGMGMNANGNYFAQASQTNQQQMQEKQNQQNAQGATDTWTCPQCGTENTGKFCSNCGTPKPTNEKPKLEMKCSECSEIVDLSNGIPKFCPHCGKPFQGVPLLEHHHHHH”, the “soluble on expression in E. coli” value was “soluble”.
Under “MGSDKIHHHHHHMDAIVNTVNCVGVMGKGIALQFKNKWPANYSAYEAACKAKQVRPGTMFVFDSGGLVKPNYIINFPTKDHWRGKSRVEFIRDGLVDLVAQVKRLGIRSIAIPPLGCGNGGLEWDEVRPLIEQAFAVLPDVEVRLFAPAGAPDPKSMEVKTSRPKMTAGRAAILKVLDTYRSLEYGLSRIEVQKLAYFLQEAGESLSLSFVKNQYGPYSDQLRHALNRMEGHFIRGLGDGVVDAEIEPLEDALAEAEQYVSASGHAALARHVERVANLIEGFQTPYGMELLATVHWVATHEPTAHSFDQVVSAVHAWNERKARIMQPAHVRAAWSRLDAQGWL” stands “not soluble”; under “MDLIFSLGVMIMPLTPPASPKTERRSEEDNQQTNQQGNEQGNQQPRSSILTLFGFTPNALVMPCPHGHGHFHIMDIQADDTLVFATMNGSPEIMSLLALQFLMQNVNLNLDDMLAAETDAKEAEEKEEQELSSSESVNEEKEEAEFSSSESENEEKEEENEESSRFTM”, “not soluble”; under “NDSPFYVNPNMSSAEWVRNNPNDPRTPVIRDRIASVPQGTWFAHHNPGQITGQVDALMSAAQAAGKIPILVVSNAPGRDCGNHSSGGAPSHSAYRSWIDEFAAGLKNRPAYIIVEPDLISLMSSCMQHVQQEVLETMAYAGKALKAGSSQARIYFDAGHSAWHSPAQMASWLQQADISNSAHGIATNTSNYRWTADEVAYAKAVLSAIGNPSLRAVIDTSRNGNGPAGNEWCDPSGRAIGTPSTTNTGDPMIDAFLWIKLPGEADGCIAGAGQFVPQAAYEMAIAA”, “soluble”.
In the case of “MTKKSTKSEAASKTKKSGVPETGAQGVRAGGADHADAAHLGTVNNALVNHHYLEEKEFQTVAETLQRNLATTISLYLKFKKYHWDIRGRFFRDLHLAYDEFIAEIFPSIDEQAERLVALGGSPLAAPADLARYSTVQVPQETVRDARTQVADLVQDLSRVGKGYRDDSQACDEANDPVTADMYNGYAATIDKIRWMLQAIMDDERLD”, the “soluble on expression in E. coli” value was “soluble”.
As for “MMIDDSKVSFVIPTINEEGTIGSVIDGIRSEFPNSEIIVVDTNSTDRTREIARSKGARVIEEPRRGYGRAYQTGIPAASGEIIVCMDGDGTYPTDVVKPLIELLIADRVDFISCDRITFRTSKNYTTLHYVGNMVLNLTIRILFKVRMVDSQSGMWVFRSEIYRKMKNLGNGMSFSQNIKIEAVRHGVFMEIPIRYGVRITKPKLKTWHDGFHNLFALFVKRVSE”, the “soluble on expression in E. coli” value is “not soluble”.
“TTKKRVFHFGKGKSEGNKTMKELLGGKGANLAEMASIGLSVPPGFTVSTEACQQYQDAGCALPAGLWAEIVDGLQWVEEYMGATLGDPQRPLLLSVRSGAAVSMPGMMDTVLNLGLNDEVAAGLAAKSGERFAYDSFRRFLDMFGNVVMDIPRSLFEEKLEHMKESKGLKNDTDLTASDLKELVGQYKEVYLSAKGEPFPSDPKKQLELAVLAVFNSWESPRAKKYRSINQITGLRGTAVNVQCMVFGNMGNTSGTGVLFTRNPNTGEKKLYGEFLVNAQGEDVVAGIRTPEDLDAMKNLMPQAYDELVENCNILESHYKEMQDIEFTVQENRLWMLQCRTGKRTGKSAVKIAVDMVNEGLVEPRSAIKMVEPGHLDQLLHPQFENPSAYKDQVIATGLPASPGAAVGQVVFTAEDAEAWHSQGKAAILVRAETSPEDVGGMHAAVGILTERGGMTSHAAVVARGWGKCCVSGCSGIRVNDAEKLVTIGGHVLREGEWLSLNGSTGEVILGKQPLSPPALSGDLGTFMAWVDDVRKLKVLANADTPDDALTARNNGAQGIGLCRTEHMFFASDERIKAVRQMIMAPTLELRQQALDRLLPYQRSDFEGIFRAMDGLPVTIRLLDPPLHEFLPEGNIEDIVSELCAETGANQEDALARIEKLSEVNPMLGFRGCRLGISYPELTEMQARAIFEAAIAMTNQGVQVFPEIMVPLVGTPQELGHQVTLIRQVAEKVFANVGKTIGYKVGTMIEIPRAALVADEIAEQAEFFSFGTNDLTQMTFGYSRDDVGKFIPVYLAQGILQHDPFEVLDQRGVGELVKFATERGRKARPNLKVGICGEHGGEPSSVAFFAKAGLDYVSCSPFRVPIARLAAAQVLV”: the “soluble on expression in E. coli” value is recorded as “soluble”.
Under “MEDLTNVSSLLNMERARDKANEEGLALLQEEIDKMVETTELMTGNIQSLKNKIQILASEVEEEEERVKQMHQINSSGVLSLPELSQKTLKAPTLQKEILALIPNQNALLKDLDILHNSSQMKSMSTFIEEAYKKLDAS” stands “soluble”.
Regarding “MATVTTHASASIFRPCTSKPRFLTGSSGRLNRDLSFTSIGSSAKTSSFKVEAKKGEWLPGLASPDYLTGSLAGDNGFDPLGLAEDPENLKWFVQAELVNGRWAMLGVAGMLLPEVFTKIGIINVPEWYDAGKEQYFASSSTLFVIEFILFHYVEIRRWQDIKNPGSVNQDPIFKQYSLPKGEVGYPGGIFNPLNFAPTQEAKEKELANGRLAMLAFLGFVVQHNVTGKGPFENLLQHLSDPWHNTIVQTFN”, the “soluble on expression in E. coli” value was “soluble”.
Under “MIDFRPFYQQIATSHLSAWLETLPLQLKQWEKTAHSDYAKWAKIATSMPTSPTSINLTDKVEAVLAEALPEGEKQYLIYRLKQLMPWRKGPYHLHGVHIDTEWRSDFKWQRVLPHLAPLKDRTILDVGCGNGYHMWRMVGEDAQMVVGIDPTELFLCQFEAVRQLLGNDRRANLIPLGLEQMQPLAAFDTVFSMGVLYHRKSPLDHLSQLKAQLVKGGELVLETLIIDGDINDILTPADRYAKMKNVYFIPSVAALINWLKKIGFKNARCVDQSVTTLAEQRKTEWLENESLVDFLDPTDQRKTIEGLPAPKRAVILANA” stands “not soluble”.
Under “MALMTMVQALNRALDEEMAKDPRVVVLGEDVGKRGGVFLVTEGLLQKYGPDRVMDTPLSEAAIVGAALGMAAHGLRPVAEIQFADYIFPGFDQLVSQVAKLRYRSGGQFTAPLVVRMPSGGGVRGGHHHSQSPEAHFVHTAGLKVVAVSTPYDAKGLLKAAIRDEDPVVFLEPKRLYRSVKEEVPEEDYTLPIGKAALRREGKDLTLIGYGTVMPEVLQAAAELAKAGVSAEVLDLRTLMPWDYEAVMNSVAKTGRVVLVSDAPRHASFVSEVAATIAEDLLDMLLAPPIRVTGFDTPYPYAQDKLYLPTVTRILNAAKRALDY” stands “soluble”.
Under “MFTESPSRAISSYQRVGVESGVVSADPHKLILMLFEGARQALDCSLLYIQQNRIAAKGEMISKAIMIIDHGLKASLDKTAGGELANRLEQLYDYMTARLLTANLQNDAVIIEEISCLLGELHEAWASIGNQPAGKTDVQTATRNTIEDTAGTGAMA” stands “not soluble”; under “VPMDELNERIFKEVVMYLRQHIKNYDNILDALRSTFHSTNHVEKLFFGGKINMLNQPEFHDITRVRSLLSLIEKEQDVLKLVQSPHTGISIKIGKENDYEEMENCSLITASYSVDQKQIGSIAIIGPTRMNYSRVVSLLQHVTSDLSKALTSLYDE”, “not soluble”.
With “MSLNQTILNRVKTRVMHQLVSSLIYENIVVYKASYQDGVGHFTIEGHDSEYRFTAEKTHSFDRIRITSPIERVVGDEADTTTDYTQLLREVVFTFPKNDEKLEQFIVELLQTELKDTQSMQYRESNPPATPETFNDYEFYAMEGHQYHPSYKSRLGFTLSDNLKFGPDFVPNVKLQWLAIDKDKVETTVSRNVVVNEMLRQQVGDKTYEHFVQQIEASGKHVNDVEMIPVHPWQFEHVIQVDLAEERLNGTVLWLGESDELYHPQQSIRTMSPIDTTKYYLKVPISITNTSTKRVLAPHTIENAAQITDWLKQIQQQDMYLKDELKTVFLGEVLGQSYLNTQLSPYKQTQVYGALGVIWRENIYHMLIDEEDAIPFNALYASDKDGVPFIENWIKQYGSEAWTKQFLAVAIRPMIHMLYYHGIAFESHAQNMMLIHENGWPTRIALKDFHDGVRFKREHLSEAASHLTLKPMPEAHKKVNSNSFIETDDERLVRDFLHDAFFFINIAEIILFIEKQYGIDEELQWQWVKGIIEAYQEAFPELNNYQHFDLFEPTIQVEKLTTRRLLSDSELRIHHVTNPLGVGGINDATTISETEGHHHHHH”, the “soluble on expression in E. coli” value is recorded as “soluble”.
Under “MGHHHHHHSHRRERACPERALDLENIMRKFSGSCRCCAKQIKFYRMRHHYKSCKKYQDEYGVSSIIPNFQISQDSVGNSNRSETSTSDNTETYQENTSSSGHPTFKCPLCQESNFTRQRLLDHCNSNHLFQIVPVTCPICVSLPWGDPSQITRNFVSHLNQRHQFDYGEFVNLQLDEETQYQTAVEESFQVNI” stands “not soluble”; under “MGSDKIHHHHHHKDNTKVIAHRGYWKTEGSAQNSIRSLERASEIGAYGSEFDVHLTADNVLVVYHDNDIQGKHIQSCTYDELKDLQLSNGEKLPTLEQYLKRAKKLKNIRLIFELKSHDTPERNRDAARLSVQMVKRMKLAKRTDYISFNMDACKEFIRLCPKSEVSYLNGELSPMELKELGFTGLDYHYKVLQSHPDWVKDCKVLGMTSNVWTVDDPKLMEEMIDMGVDFITTDLPEETQKILHSRAQ”, “not soluble”.
Under “MSEPPKKPFACAICRNKSSGCHYGVLSCDACKMFFKRTYLMEKYYTCRRQESCYNMDGGNRKCKACRFKKCLEVGMNPELFSRSESQIISTNIPTQLITQDHRNAEFLQKLKILDKTRHEVFKIIDTYENPSFVDLVRQESRLSCYLRPKNISWENTERKLKPWGSLGMLLAVETIKSLDFYPKLLLSDRILLLETVTLKSFHLSVAFDSFSQKKEKILAPDGSEMFPDSLNKMDFCKDLIMRLLTTPVKPLIAMKLTETEYLLLGIIVICNPEIDGLSPSGKAIITAFLQKTINVLLQFCLINNPRSAPSRLLEIISINQILNRQFHASYKLFDALRKQWDPTMSFQKVLVESCKTRGYDLS” stands “not soluble”.
With “MASQPNSSAKKKEEKGKNIQVVVRCRPFNLAERKASAHSIVECDPVRKEVSVRTGGLADKSSRKTYTFDMVFGASTKQIDVYRSVVCPILDEVIMGYNCTIFAYGQTGTGKTFTMEGERSPNEEYTWEEDPLAGIIPRTLHQIFEKLTDNGTEFSVKVSLLEIYNEELFDLLNPSSDVSERLQMFDDPRNKRGVIIKGLEEITVHNKDEVYQILEKGAAKRTTAATLMNAYSSRSHSVFSVTIHMKETTIDGEELVKIGKLNLVDLAGSENIGRSGAVDKRAREAGNINQSLLTLGRVITALVERTPHVPYRESKLTRILQDSLGGRTRTSIIATISPASLNLEETLSTLEYAHRAKNILNKPEVNQKL”, the “soluble on expression in E. coli” value is listed as “soluble”.
Under “MGSDKIHHHHHHMAKKLFDYQLDETVDGYFLLKDSEVRIAKNGKKFLAINFQDTSGEISGKFWDASDTDVENFQAGRIVHLKGKRENYQGNPQIKIQQMRLTHSGEPQEVQQFVEHAPLKTDTMADEINQFVFEITEPNWNRIVRHMLTTFHDRFFSYPAAKKNHHAFAGGLAYHTLSILRLAKAVADQYPHVNRALLYAGAILHDMGKTIEMSGPVSTTYTLAGNLVGHIVLIDEQIVETCQQLKIDEQSESVLVLRHTILAHHGLLEYGSPVRPHIMEAEILHDLDELDASIQMMQTSLGHAEPGTYTERIFAMDGRNFYRPTGDQTKGELPDEQN” stands “not soluble”.

These data come from the DeepSol protein solubility set.
